In patent publication US20140100120, “METHODS OF X-APTAMER GENERATION AND COMPOSITIONS […]” (AM Biotechnologies, LLC, published 2014):

Each binder was assayed against CD44 hyaluronic acid binding domain (CD44-HABD) (UniProt P16070 P16070:20-178) (assay: filter; 20 mM Tris pH 8.0, 150 mM NaCl, RT). Details: label: biotin; hairpin (predicted).
CD44 hyaluronic acid binding domain (CD44-HABD), sequence (P16070 20-178, one chain of several): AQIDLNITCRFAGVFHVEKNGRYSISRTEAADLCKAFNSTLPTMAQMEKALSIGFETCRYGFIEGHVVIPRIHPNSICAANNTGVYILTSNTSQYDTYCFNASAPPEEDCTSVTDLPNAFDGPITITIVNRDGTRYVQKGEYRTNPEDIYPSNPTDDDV
Protocol: The equilibrium binding constants of selected XAs for CD44-HABD were determined by a filter binding assay. The biotinylated XAs (1 nM) were incubated with varying concentrations of CD44-HABD in 50 μL of 20 mM Tris, pH 8.0, 150 mM NaCl for 40 min at room temperature and then transferred to a 96-well dot-blot apparatus and filtered under vacuum onto nitrocellulose membranes, which retain the CD44-HABD along with any bound XAs. The amount of biotinylated XA retained at each spot was determined by chemiluminescent detection using the Chemiluminescent Nucleic Acid Detection Module (Thermo Scientific) following the manufacturer's instructions. The chemiluminescent signals were collected on a Chemimager (Alpha Innotech). Image analysis and quantification of spot intensities were performed using ImageJ (version 1.42q). Binding analysis was based on the spot intensities on the nitrocellulose membranes with subtraction of background spot intensity due to the buffer effect from all the data points. Saturation binding curves were generated by using GraphPad Prism with curve fits assuming a single binding site. The NH₂ XA column lists KDs for XAs where X=amino-dU. The ADDA XA column lists KDs for XAs where X=ADDA-dU.
The equilibrium binding constants of the small constructs were determined by the filter binding assay. The derived equilibrium binding constants of the above small XA constructs are shown below in Table 4.
In the case of CTGTTAGGGAACCAAGACGA (ssDNA, fully monothioate PS; X=amino-dU [n positions 2,4 = modified dU]) [Motif 2 thio NH2], the Kd is reported as 48 nM.
Work on CTGTTAGGGAACCAAGACGA (ssDNA, fully monothioate PS; X=ADDA-dU [n positions 2,4 = modified dU]) [Motif 2 thio ADDA] yielded a Kd of 15.5 nM.
CTGTTAGGGAACCAAGACGA (ssDNA, X=ADDA-dU; phosphodiester [n positions 2,4 = modified dU]) [Motif 2 phospho ADDA] showed a Kd of 2 nM.
CTGTTAGGGAACCAAGACGA (ssDNA, X=amino-dU; phosphodiester [n positions 2,4 = modified dU]) [Motif 2 phospho NH2] gave a Kd of 43.1 nM.

Same assay, conditions: label: biotin; stem-loop (predicted)
Binder GATCTGCAATGTAACCATAGACA (ssDNA, fully monothioate PS; X=ADDA-dU [n positions 10 = modified dU]) [Motif 4 thio ADDA] has a Kd of 13.6 nM.
GATCTGCAATGTAACCATAGACA (ssDNA, X=ADDA-dU; phosphodiester [n positions 10 = modified dU]) [Motif 4 phospho ADDA] was tested, and the Kd was 2.1 nM.
Work on AGATACAGTAAACGTCCATAGACAC (ssDNA, fully monothioate PS; X=amino-dU [n positions 4,15 = modified dU]) [Motif 5 thio NH2] yielded a Kd of 18 nM.
With GCCTGCAAGACGTCCATAGACAC (ssDNA, fully monothioate PS; X=amino-dU [n positions 13 = modified dU]) [Motif 3 thio NH2] the Kd was 81.2 nM.
In the case of AGATACAGTAAACGTCCATAGACAC (ssDNA, fully monothioate PS; X=ADDA-dU [n positions 4,15 = modified dU]) [Motif 5 thio ADDA], the Kd is reported as 10.1 nM.
GCCTGCAAGACGTCCATAGACAC (ssDNA, X=amino-dU; phosphodiester [n positions 13 = modified dU]) [Motif 3 phospho NH2] gave a Kd of 27.6 nM.
Binder GCCTGCAAGACGTCCATAGACAC (ssDNA, fully monothioate PS; X=ADDA-dU [n positions 13 = modified dU]) [Motif 3 thio ADDA] has a Kd of 64.8 nM.
GCCTGCAAGACGTCCATAGACAC (ssDNA, X=ADDA-dU; phosphodiester [n positions 13 = modified dU]) [Motif 3 phospho ADDA] showed a Kd of 19.5 nM.
For GATCTGCAATGTAACCATAGACA (ssDNA, X=amino-dU; phosphodiester [n positions 10 = modified dU]) [Motif 4 phospho NH2], the Kd was 6.8 nM.
Binder AGATACAGTAAACGTCCATAGACAC (ssDNA, X=amino-dU; phosphodiester [n positions 4,15 = modified dU]) [Motif 5 phospho NH2] has a Kd of 13.8 nM.
AGATACAGTAAACGTCCATAGACAC (ssDNA, X=ADDA-dU; phosphodiester [n positions 4,15 = modified dU]) [Motif 5 phospho ADDA] was tested, and the Kd was 3.9 nM.
GATCTGCAATGTAACCATAGACA (ssDNA, fully monothioate PS; X=amino-dU [n positions 10 = modified dU]) [Motif 4 thio NH2] gave a Kd of 35.4 nM.
